Measured values as given in the supplement of paper PMC10567573.

B1: PTPN9 (parent)
chain: IDFLRVVRNQQSLAVSNMGARSKG

Variants of: B1
Test: protein stability index of a GFP-peptide fusion (GPS, HEK-293T) (PSI 1-6); higher = more stable
Details: c terminus: a fixed tail appended
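Further: lentivirally expressed fusions sorted by FACS into six bins by GFP to DsRed ratio, PSI derived from sequencing read proportions per bin multiplied by bin number.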

Protein stability index, by site and new letter:
G19: P 2.83, K 2.58, S 2.08, V 2.13, M 2.3, N 2.72, R 1.97, C 2.24, F 2.94, L 2.12, H 2.57, Q 2.96, W 2.66, I 2.19, D 2.35, A 2.47, Y 2.16, T 2.27, E 2.91
V15: A 2.82, N 2.86, F 2.18, I 1.97, T 2.69, L 2.41, P 2.36, K 2.62, R 2.31, D 2.52, Q 2.79, E 2.69, G 2.83, C 2.28, Y 2.15, W 2.25, M 2.61, S 2.49, H 2.56
N17: K 2.24, A 2.7, C 2.1, E 3.08, V 2, W 2.14, I 2.09, R 2.45, T 2.71, M 1.65, D 2.63, H 2.9, Y 1.93, L 2.22, Q 2.42, G 2.21, S 2.74, P 2.27, F 2.12
S12: G 2.48, I 1.99, D 2.75, L 2.31, Q 2.02, W 1.69, F 2.26, H 2.41, N 2.1, R 2.52, P 2.46, Y 1.8, V 2.34, A 2.04, C 1.89, K 2.55, T 2.15, E 2.65, M 2.22
Q11: L 1.81, S 2.31, A 1.99, N 2.84, F 1.95, E 2.35, Y 2.12, W 1.34, R 2.31, M 2.1, K 2.26, D 2.57, I 1.8, V 1.67, C 1.91, G 2.35, H 2.26, P 2.37, T 2.29
A14: R 2.13, F 2.23, L 1.76, H 2.48, C 2.01, N 2.4, V 2.22, K 2.13, E 1.95, P 2.7, S 2.23, W 2.39, Y 2.04, T 2.64, M 2.66, G 2.3, Q 2.09, I 1.8, D 2.17
M18: F 2, R 3.35, Q 2.73, E 3.28, D 3.05, N 3.06, A 3.02, H 2.91, L 2.67, T 3.23, G 2.85, I 2.13, P 2.57, K 2.87, W 2.03, Y 2.04, C 2.51, S 3.13, V 2.32
V7: K 2.66, T 2.98, A 3.7, R 3.37, E 3.73, L 1.85, D 3.16, Y 2.23, H 3.26, I 2.41, W 2.91, N 3.53, F 1.84, S 3.61, P 2.94, Q 2.97, G 2.96, C 3.07, M 2.03
L4: N 3.48, F 2.3, E 4.22, V 2.6, M 2.48, D 4.58, C 2.94, R 3.06, I 1.69, T 3.33, H 3.35, S 3.6, Q 3.37, P 3.86, G 3.69, W 1.72, K 3.25, A 3.04, Y 1.89
R5: L 2.38, H 3.15, V 1.83, E 3.47, Y 2.54, N 3.24, S 3, M 2.81, D 3.71, F 2.88, G 2.81, A 2.06, W 2, T 2.45, C 1.48, I 2.69, P 3.73, K 2.39, Q 3.27
S16: I 1.74, M 1.83, E 2.64, R 2.78, P 2.54, N 2.52, F 2.31, W 1.46, V 1.9, L 1.89, C 1.99, G 2.35, Q 2.78, A 3.26, D 2.48, K 2.59, Y 2.38, T 2.2, H 2.15
N9: P 2.78, R 2.44, Q 2.14, K 2.58, T 2.28, D 3.66, E 2.67, I 1.67, L 1.61, S 2.15, A 1.94, V 1.89, C 1.96, Y 1.93, H 2.57, G 2.3, M 1.88, F 2.66
F3: W 2.17, Y 2.4
V6: M 1.99, Q 2.8, E 3.36, N 3.35, S 3.36, R 2.38, F 2.26, G 3.53, P 3.31, W 2.74, A 3.12, H 2.67, C 2.42, Y 2.13, K 2.8, L 2.5, D 3.26, T 3.23, I 1.99
L13: W 2.72, T 2.57, N 3.2, M 2.51, A 2.73, R 2.34, Q 3.3, D 3.08, E 3.58, Y 2.57, S 2.7, P 2.96, K 2.75, H 2.45, V 2.85, F 2.34, I 2.31, C 2.14, G 3.24
R8: I 2.65, Q 2.32, W 1.94, T 2.13, N 2.27, C 2.27, G 2.37, L 2.04, S 1.8, V 1.88, P 2.51, H 2.32, Y 1.78, K 2.26, A 2.54, D 3.22, E 3, M 1.46, F 1.47
Q10: L 2.2, P 2.74, W 2.02, V 2.02, S 1.43, D 2.63, M 2.54, I 1.95, F 2.35, N 2.39, H 2.49, K 2.27, R 2.19, G 3.19, E 2.87, T 2.4, A 2.06, Y 2.35, C 1.89
R21: I 2.14, E 2.3, L 1.7, A 2.6, D 2.54, F 2.45, K 2.4, G 3.16, H 2.67, C 1.83
A20: D 2.57, P 2.57, Q 2.25, N 2.78, S 2.75, M 2.32, C 2.6, L 2.21, E 1.92, H 2.38, W 2.32, V 2.42, Y 2.44, R 2.47, T 2.06, F 2.1, I 1.99, K 2.69, G 2.43
